T1: FcγRIIb (human, UniProt P31994 43-217)
T1 construct: extracellular domain; also called FcgRIIb; 2b; not shown: His tag at the C terminus
T1 sequence (looked up): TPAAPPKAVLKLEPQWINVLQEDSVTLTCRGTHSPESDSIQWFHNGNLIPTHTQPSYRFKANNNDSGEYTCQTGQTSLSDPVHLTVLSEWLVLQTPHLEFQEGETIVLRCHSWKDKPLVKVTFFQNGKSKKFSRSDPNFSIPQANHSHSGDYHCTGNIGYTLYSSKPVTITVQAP

T2: FcγRIIb extracellular domain with C-terminal His tag (human, UniProt P31994 43-217)
T2 construct: extracellular domain; also called FcgRIIb; 2b; not shown: His tag at the C terminus
T2 sequence (looked up): T1 sequence (looked up)

B1: GpH7-B3 variant S324_01G/GpL16-k0 (homodimerized antibody, Ho Ab) (antibody, human IgG1, kappa)
heavy: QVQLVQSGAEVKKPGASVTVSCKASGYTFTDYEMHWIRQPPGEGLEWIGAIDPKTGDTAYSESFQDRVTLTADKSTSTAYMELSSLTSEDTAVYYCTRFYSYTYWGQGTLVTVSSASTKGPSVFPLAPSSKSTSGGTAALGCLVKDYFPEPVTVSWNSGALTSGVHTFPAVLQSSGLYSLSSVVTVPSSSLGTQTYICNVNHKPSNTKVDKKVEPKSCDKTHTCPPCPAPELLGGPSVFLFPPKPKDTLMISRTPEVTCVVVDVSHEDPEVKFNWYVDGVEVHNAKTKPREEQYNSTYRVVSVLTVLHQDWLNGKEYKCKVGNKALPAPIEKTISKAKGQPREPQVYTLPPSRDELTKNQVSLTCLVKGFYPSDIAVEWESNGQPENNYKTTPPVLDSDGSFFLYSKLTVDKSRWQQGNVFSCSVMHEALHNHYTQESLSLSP
light: DIVMTQSPLSLPVTPGEPASISCQASESLVHSNRNTYLHWYLQKPGQSPQLLIYKVSNRFSGVPDRFSGSGSGTDFTLKISRVEAEDVGVYYCSQNTHVPPTFGQGTKVEIERTVAAPSVFIFPPSDEQLKSGTASVVCLLNNFYPREAKVQWKVDNALQSGNSQESVTEQDSKDSTYSLSSTLTLSKADYEKHKVYACEVTHQGLSSPVTKSFNRGEC
notes: Mutation in both H chains; also called S324_01G Ho Ab
B2: GpH7-B3 variant S298_03V/GpL16-k0 (homodimerized antibody, Ho Ab) (antibody, human IgG1, kappa)
heavy: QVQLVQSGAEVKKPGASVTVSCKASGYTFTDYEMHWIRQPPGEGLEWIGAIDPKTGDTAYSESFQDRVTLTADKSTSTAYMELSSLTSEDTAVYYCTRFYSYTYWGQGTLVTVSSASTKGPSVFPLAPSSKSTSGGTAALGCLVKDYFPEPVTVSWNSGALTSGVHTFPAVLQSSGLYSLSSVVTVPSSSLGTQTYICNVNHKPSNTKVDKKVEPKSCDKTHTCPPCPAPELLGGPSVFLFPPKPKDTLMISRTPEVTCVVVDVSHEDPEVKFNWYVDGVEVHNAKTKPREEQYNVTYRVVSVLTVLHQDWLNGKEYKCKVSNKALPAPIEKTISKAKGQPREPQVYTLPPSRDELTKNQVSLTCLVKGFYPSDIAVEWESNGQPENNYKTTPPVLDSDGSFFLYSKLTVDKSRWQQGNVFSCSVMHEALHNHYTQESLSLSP
light: B1 light
notes: Mutation in both H chains; also called S298_03V Ho Ab
B3: GpH7-B3 variant S239_10E/GpL16-k0 (homodimerized antibody, Ho Ab) (antibody, human IgG1, kappa)
heavy: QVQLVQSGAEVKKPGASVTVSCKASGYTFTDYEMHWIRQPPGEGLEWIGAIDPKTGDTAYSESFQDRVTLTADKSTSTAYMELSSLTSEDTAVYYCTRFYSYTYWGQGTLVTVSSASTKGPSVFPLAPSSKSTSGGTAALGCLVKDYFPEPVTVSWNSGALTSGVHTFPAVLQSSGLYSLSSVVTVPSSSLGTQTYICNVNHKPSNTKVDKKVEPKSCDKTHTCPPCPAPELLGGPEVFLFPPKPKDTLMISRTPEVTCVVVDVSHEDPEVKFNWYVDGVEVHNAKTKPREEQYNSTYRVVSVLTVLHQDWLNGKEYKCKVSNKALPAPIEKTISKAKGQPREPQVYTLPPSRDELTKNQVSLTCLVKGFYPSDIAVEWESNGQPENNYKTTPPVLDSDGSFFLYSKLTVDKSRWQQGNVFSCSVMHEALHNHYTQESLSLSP
light: B1 light
notes: Mutation in both H chains; also called S239_10E Ho Ab
B4: GpH7-B3 variant S324_09D/GpL16-k0 (homodimerized antibody, Ho Ab) (antibody, human IgG1, kappa)
heavy: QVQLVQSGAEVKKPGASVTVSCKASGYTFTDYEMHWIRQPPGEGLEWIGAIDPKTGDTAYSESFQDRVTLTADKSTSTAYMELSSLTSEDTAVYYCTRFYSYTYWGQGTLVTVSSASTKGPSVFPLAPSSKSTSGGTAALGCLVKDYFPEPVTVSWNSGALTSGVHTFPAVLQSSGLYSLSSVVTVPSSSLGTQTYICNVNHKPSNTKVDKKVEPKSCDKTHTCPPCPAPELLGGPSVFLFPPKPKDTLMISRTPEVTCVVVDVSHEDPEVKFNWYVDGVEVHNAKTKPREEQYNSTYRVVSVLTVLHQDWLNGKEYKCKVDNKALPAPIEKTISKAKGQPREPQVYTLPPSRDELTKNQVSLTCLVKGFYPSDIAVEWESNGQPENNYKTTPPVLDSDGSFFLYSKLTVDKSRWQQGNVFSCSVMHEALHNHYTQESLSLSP
light: B1 light
notes: Mutation in both H chains; also called S324_09D Ho Ab
B5: GpH7-B3 variant S324_14T/GpL16-k0 (homodimerized antibody, Ho Ab) (antibody, human IgG1, kappa)
heavy: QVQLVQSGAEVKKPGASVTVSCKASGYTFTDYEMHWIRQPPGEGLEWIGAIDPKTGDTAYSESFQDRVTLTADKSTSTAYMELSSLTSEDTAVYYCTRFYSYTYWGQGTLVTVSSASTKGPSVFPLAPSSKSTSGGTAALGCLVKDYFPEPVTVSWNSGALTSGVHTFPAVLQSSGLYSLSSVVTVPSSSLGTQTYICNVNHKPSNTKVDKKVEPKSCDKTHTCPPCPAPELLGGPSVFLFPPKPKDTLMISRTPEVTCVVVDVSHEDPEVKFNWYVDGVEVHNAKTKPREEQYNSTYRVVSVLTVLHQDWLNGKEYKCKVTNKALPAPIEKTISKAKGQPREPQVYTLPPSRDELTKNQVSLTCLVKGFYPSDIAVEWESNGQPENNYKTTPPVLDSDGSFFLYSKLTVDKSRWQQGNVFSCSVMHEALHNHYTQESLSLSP
light: B1 light
notes: Mutation in both H chains; also called S324_14T Ho Ab
B6: GpH7-B3 variant S337_01G/GpL16-k0 (homodimerized antibody, Ho Ab) (antibody, human IgG1, kappa)
heavy: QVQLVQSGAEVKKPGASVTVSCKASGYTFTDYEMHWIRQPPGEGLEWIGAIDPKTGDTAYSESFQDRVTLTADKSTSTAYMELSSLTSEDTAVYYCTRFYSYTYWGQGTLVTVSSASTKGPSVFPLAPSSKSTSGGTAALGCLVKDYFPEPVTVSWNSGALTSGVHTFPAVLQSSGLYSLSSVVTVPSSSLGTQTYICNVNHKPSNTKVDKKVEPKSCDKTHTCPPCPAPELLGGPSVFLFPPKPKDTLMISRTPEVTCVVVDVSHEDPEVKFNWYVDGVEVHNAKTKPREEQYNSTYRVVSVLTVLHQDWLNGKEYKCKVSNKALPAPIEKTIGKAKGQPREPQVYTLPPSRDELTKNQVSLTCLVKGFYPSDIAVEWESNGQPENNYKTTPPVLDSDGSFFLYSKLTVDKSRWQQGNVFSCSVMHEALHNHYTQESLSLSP
light: B1 light
notes: Mutation in both H chains; also called S337_01G Ho Ab
B7: GpH7-B3 variant S239_18N/GpL16-k0 (homodimerized antibody, Ho Ab) (antibody, human IgG1, kappa)
heavy: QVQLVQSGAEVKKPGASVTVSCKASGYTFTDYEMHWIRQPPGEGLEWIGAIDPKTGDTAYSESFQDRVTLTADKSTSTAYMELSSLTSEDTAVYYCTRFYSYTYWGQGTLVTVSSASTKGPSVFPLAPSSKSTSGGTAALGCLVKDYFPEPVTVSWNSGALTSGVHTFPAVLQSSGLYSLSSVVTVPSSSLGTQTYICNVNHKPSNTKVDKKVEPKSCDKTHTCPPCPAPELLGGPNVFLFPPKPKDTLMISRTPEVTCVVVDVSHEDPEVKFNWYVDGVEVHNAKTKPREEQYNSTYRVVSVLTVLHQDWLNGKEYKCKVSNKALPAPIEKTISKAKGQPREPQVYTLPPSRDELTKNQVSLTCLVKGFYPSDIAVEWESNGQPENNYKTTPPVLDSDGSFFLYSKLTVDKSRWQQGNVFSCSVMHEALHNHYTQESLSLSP
light: B1 light
notes: Mutation in both H chains; also called S239_18N Ho Ab
B8: GpH7-B3 variant S324_06M/GpL16-k0 (homodimerized antibody, Ho Ab) (antibody, human IgG1, kappa)
heavy: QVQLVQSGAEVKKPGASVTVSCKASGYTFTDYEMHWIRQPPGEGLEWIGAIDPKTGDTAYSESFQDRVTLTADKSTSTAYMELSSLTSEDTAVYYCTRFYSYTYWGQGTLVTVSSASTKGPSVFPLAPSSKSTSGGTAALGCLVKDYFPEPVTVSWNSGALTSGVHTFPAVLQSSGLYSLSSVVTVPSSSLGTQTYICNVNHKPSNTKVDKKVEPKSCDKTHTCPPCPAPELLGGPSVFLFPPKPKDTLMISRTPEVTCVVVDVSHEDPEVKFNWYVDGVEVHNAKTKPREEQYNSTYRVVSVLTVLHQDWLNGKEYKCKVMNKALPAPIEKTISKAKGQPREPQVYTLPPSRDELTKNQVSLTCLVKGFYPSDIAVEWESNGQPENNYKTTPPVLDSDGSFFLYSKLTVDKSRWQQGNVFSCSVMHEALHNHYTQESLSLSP
light: B1 light
notes: Mutation in both H chains; also called S324_06M Ho Ab
B9: GpH7-B3 variant S324_20W/GpL16-k0 (homodimerized antibody, Ho Ab) (antibody, human IgG1, kappa)
heavy: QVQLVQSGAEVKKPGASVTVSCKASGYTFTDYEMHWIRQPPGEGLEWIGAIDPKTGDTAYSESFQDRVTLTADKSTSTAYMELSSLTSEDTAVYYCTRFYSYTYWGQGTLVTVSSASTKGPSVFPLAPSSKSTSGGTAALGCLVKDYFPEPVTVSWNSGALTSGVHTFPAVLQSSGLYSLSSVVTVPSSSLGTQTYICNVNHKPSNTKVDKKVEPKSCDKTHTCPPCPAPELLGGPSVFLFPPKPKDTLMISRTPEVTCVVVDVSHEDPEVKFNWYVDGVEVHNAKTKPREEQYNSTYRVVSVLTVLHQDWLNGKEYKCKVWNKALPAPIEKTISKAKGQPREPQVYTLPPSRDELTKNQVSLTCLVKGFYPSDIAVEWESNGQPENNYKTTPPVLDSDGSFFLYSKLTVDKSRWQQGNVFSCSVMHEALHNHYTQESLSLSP
light: B1 light
notes: Mutation in both H chains; also called S324_20W Ho Ab
B10: GpH7-A5/GpH7-B3 variant S324_06M/GpL16-k0 (antibody, human IgG1, kappa)
heavy 1: not shown
heavy 2: not shown
light: B1 light
notes: heterodimerized IgG1; alteration in the GpH7-B3 H chain only; also called He Ab
B11: GpH7-A5/GpH7-B3 variant A327_18N/GpL16-k0 (antibody, human IgG1, kappa)
heavy 1: not shown
heavy 2: not shown
light: B1 light
notes: as for B10
B12: GpH7-A5/GpH7-B3 variant N325_09D/GpL16-k0 (antibody, human IgG1, kappa)
heavy 1: not shown
heavy 2: not shown
light: B1 light
notes: as for B10
B13: GpH7-A5/GpH7-B3 variant P331_06M/GpL16-k0 (antibody, human IgG1, kappa)
heavy 1: not shown
heavy 2: not shown
light: B1 light
notes: as for B10
B14: GpH7-A5/GpH7-B3 variant P331_07I/GpL16-k0 (antibody, human IgG1, kappa)
heavy 1: not shown
heavy 2: not shown
light: B1 light
notes: as for B10
B15: GpH7-A5/GpH7-B3 variant P331_15Y/GpL16-k0 (antibody, human IgG1, kappa)
heavy 1: not shown
heavy 2: not shown
light: B1 light
notes: as for B10
B16: GpH7-A5/GpH7-B3 variant P331_10E/GpL16-k0 (antibody, human IgG1, kappa)
heavy 1: not shown
heavy 2: not shown
light: B1 light
notes: as for B10
B17: GpH7-A5/GpH7-B3 variant P331_04F/GpL16-k0 (antibody, human IgG1, kappa)
heavy 1: not shown
heavy 2: not shown
light: B1 light
notes: as for B10
B18: GpH7-A5/GpH7-B3 variant P271_10E/GpL16-k0 (antibody, human IgG1, kappa)
heavy 1: not shown
heavy 2: not shown
light: B1 light
notes: Heterodimerized anti-glypican-3 IgG1; the substitution stands in the GpH7-B3 chain only; also called He Ab
B19: GpH7-A5/GpH7-B3 variant S267_14T/GpL16-k0 (antibody, human IgG1, kappa)
heavy 1: not shown
heavy 2: not shown
light: B1 light
notes: as for B18
B20: GpH7-A5/GpH7-B3 variant P271_09D/GpL16-k0 (antibody, human IgG1, kappa)
heavy 1: not shown
heavy 2: not shown
light: B1 light
notes: as for B18

target: T3, FcγRIIIa extracellular domain with C-terminal His tag (human, UniProt P08637 17-208); experiment: SPR (Biacore), antibody captured on antigen-peptide chip, FcγR analyte, relative binding
T3 construct: extracellular domain; also called 3a; FcgRIIIa
T3 sequence (P08637 17-208): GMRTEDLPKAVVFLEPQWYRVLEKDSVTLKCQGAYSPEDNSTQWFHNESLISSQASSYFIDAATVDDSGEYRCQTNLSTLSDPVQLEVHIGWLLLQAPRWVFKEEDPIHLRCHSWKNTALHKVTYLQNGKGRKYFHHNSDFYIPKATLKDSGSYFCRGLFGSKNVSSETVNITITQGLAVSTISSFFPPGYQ

| Ho/Con_3a | Binder |
| --- | --- |
| 119 % of GpH7-B3/GpL16-k0 (=100) | B1 |
| 110 % of GpH7-B3/GpL16-k0 (=100) | B2 |
| 252 % of GpH7-B3/GpL16-k0 (=100) | B3 |
| 101 % of GpH7-B3/GpL16-k0 (=100) | B4 |
| 108 % of GpH7-B3/GpL16-k0 (=100) | B5 |
| 108 % of GpH7-B3/GpL16-k0 (=100) | B6 |
| 116 % of GpH7-B3/GpL16-k0 (=100) | B7 |
| 114 % of GpH7-B3/GpL16-k0 (=100) | B8 |
| 102 % of GpH7-B3/GpL16-k0 (=100) | B9 |

target: T4, FcγRIa (human, UniProt P12314 16-292); experiment: SPR (Biacore), antibody captured, FcγR as analyte; binding as % of GpH7-A5/GpH7-B3/GpL16-k0
T4 construct: extracellular domain; also called FcgRI; 1a; not shown: His tag at the C terminus
T4 sequence (P12314 16-292): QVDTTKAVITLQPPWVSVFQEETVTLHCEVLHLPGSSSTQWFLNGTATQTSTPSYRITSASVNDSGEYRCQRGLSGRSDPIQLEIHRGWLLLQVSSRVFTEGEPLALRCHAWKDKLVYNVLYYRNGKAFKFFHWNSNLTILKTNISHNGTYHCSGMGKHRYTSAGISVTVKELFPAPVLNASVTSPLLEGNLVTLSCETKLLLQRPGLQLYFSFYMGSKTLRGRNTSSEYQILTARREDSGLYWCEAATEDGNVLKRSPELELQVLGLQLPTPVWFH

| He/Con_1a | Binder |
| --- | --- |
| 99.2 % of control | B10 |
| 97.7 % of control | B11 |
| 99.9 % of control | B12 |
| 93.6 % of control | B13 |
| 93.4 % of control | B14 |
| 96 % of control | B15 |
| 95 % of control | B16 |
| 95.5 % of control | B17 |

target: T1, FcγRIIb; experiment: as above

| He/Con_2b | Binder |
| --- | --- |
| 112 % of control | B10 |
| 113 % of control | B11 |
| 124 % of control | B12 |
| 102 % of control | B13 |
| 114 % of control | B14 |
| 114 % of control | B15 |
| 116 % of control | B16 |
| 110 % of control | B17 |

target: T5, FcγRIIIa extracellular domain with C-terminal His tag (human, UniProt P08637 17-208); experiment: SPR (Biacore), antibody captured on antigen peptide chip, FcγR as analyte; relative binding amount
T5 construct: extracellular domain; also called FcgRIIIa; 3a; not shown: His tag at the C terminus
Method: (§1) Analysis of interaction between objective antibody and the FcγR was carried out using Biacore T100 (GE Healthcare). HBS-EP+ (GE Healthcare) was used as the running buffer, and the measurement temperature was set to 25° C. Chips produced by immobilizing the antigen peptide by the amine coupling method to a Series S Sencor Chip CM5 (GE Healthcare), or alternatively, chips produced by allowing preliminarily biotinylated antigen peptides to interact with and immobilize onto a Series S Sensor Chip SA (certified) (GE Healthcare) were used. Antibodies of interest were captured onto an antigen peptide-immobilized chip, and allowed to interact to each FcγR diluted with running buffer. To regenerate and repeatedly use the chip, the antibodies captured on the chip were washed off by reacting 10 mM glycine-HCl, pH 1.5.
(§2) The FcγR-binding activity of each antibody was assessed primarily using as an indicator the FcγR-binding activity and dissociation constant for FcγR.
T5 sequence (P08637 17-208): as the sequence (P08637 17-208) above

| He/Con_3a | Binder |
| --- | --- |
| 93.6 % of GpH7-A5/GpH7-B3/GpL16-k0 (=100) | B18 |
| 45.6 % of GpH7-A5/GpH7-B3/GpL16-k0 (=100) | B19 |
| 93.1 % of GpH7-A5/GpH7-B3/GpL16-k0 (=100) | B20 |

target: T2, FcγRIIb extracellular domain with …; experiment: as above
Method: as §1, §2

| He/Con_2b | Binder |
| --- | --- |
| 109 % of GpH7-A5/GpH7-B3/GpL16-k0 (=100) | B18 |
| 104 % of GpH7-A5/GpH7-B3/GpL16-k0 (=100) | B19 |
| 120 % of GpH7-A5/GpH7-B3/GpL16-k0 (=100) | B20 |

Reference: patent US20180155451A1 (published 2018)
